Assay results reported in the RNAGym collection of RNA variant scans (doi:10.1073/pnas.2313332121).

B1: TPR t1 (parent)
chain: GACCAAUCUGCCCUCAGAGCUCGAGAACAUCUUCGGAUGCAGAGGAGGCAGGCUUCGGUGGCGCGAUAGCGCCAACGUCCUCAACCUCCAAUGCAUCCCACCACAUGAUGAUGCCUGAAGAGCCUUGGUUUUUUG

Variants of: B1
Assay: polymerase ribozyme fitness, log enrichment relative to wild type (log ratio); higher = more active; in vitro selection for triplet polymerase activity
Summary of the method: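 Mutant libraries of both subunits of a heterodimeric triplet polymerase ribozyme were PCR-built, transcribed, and selected once in triplicate, with frozen incubation at −7 °C and capture of gel-excised extended constructs on streptavidin beads before RT-PCR. Illumina sequencing of input and output libraries was filtered to genotypes with ≥10 input reads and ≥1 read per output. Fitness is the logarithm of genotype enrichment over wild-type enrichment, using inverse-variance-weighted replicate averages. The logarithm is base 2.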

First: C20A A50G A74U
Second: G19A G60A A90C
The “polymerase ribozyme fitness (log ratio)” value of the first is lower: -3.16 for the first, -2.74 for the second.

Going from C20A C86A U112C G117A to G19U G60A G110U, the “polymerase ribozyme fitness (log ratio)” value falls from -5.64 to -6.37.

First: G19U U129G
Second: C20A C73U C97U A121C
The “polymerase ribozyme fitness (log ratio)” value of the first is lower: -4.04 for the first, -1.59 for the second.

First: C20G A41U C56G G63C A95U A119U
Second: G19A G44U
The “polymerase ribozyme fitness (log ratio)” value of the first is lower: -5.15 for the first, -3.1 for the second.

First: G19U C34A G69C C114U
Second: G19U C53G U54A G61A
The “polymerase ribozyme fitness (log ratio)” value of the first is lower: -6.59 for the first, -2.73 for the second.

First: G19A A121C
Second: G19U C89U C115A
The “polymerase ribozyme fitness (log ratio)” value of the first is higher: -1.3 for the first, -6.23 for the second.

Going from A18U G71A G93U U131G to A18U G48A U59G G113A G135U, the “polymerase ribozyme fitness (log ratio)” value rises from -5.74 to -4.36.

First: A18U G57C G77U A105U U112C
Second: A18U G45A
The “polymerase ribozyme fitness (log ratio)” value of the first is lower: -4.24 for the first, -2.78 for the second.

First: G19U U55G C114A U131A
Second: C20A C124G
The “polymerase ribozyme fitness (log ratio)” value of the first is higher: 2.05 for the first, -0.976 for the second.

Going from G19A A41U C53A G60C A121U to G19A A37C G61U G120C, the “polymerase ribozyme fitness (log ratio)” value rises from -5.24 to -2.13.

Compared with G19C C86A, C20A A46U C72U U129A is lower in “polymerase ribozyme fitness (log ratio)” value: -2.92 for the first, -6.73 for the second.

First: G19A C70G G113U
Second: G19A A26G U112C A118U
The “polymerase ribozyme fitness (log ratio)” value of the first is lower: -5.75 for the first, -3.63 for the second.

Going from C20A C104A C123G to G19C G63U C80A G110C, the “polymerase ribozyme fitness (log ratio)” value falls from -4.45 to -6.93.

Going from G19C U78C A90G G113U C114U to C20A C72G A75U C85A G110U, the “polymerase ribozyme fitness (log ratio)” value falls from -0.588 to -5.51.

First: G19U C76U
Second: C20A U96A
The “polymerase ribozyme fitness (log ratio)” value of the first is lower: -4.25 for the first, -4.02 for the second.

First: G19A G42A
Second: G19U C40U G47U G61A U106A C123U
The “polymerase ribozyme fitness (log ratio)” value of the first is higher: -3.26 for the first, -6.98 for the second.

First: G19U G60A C79U G120C
Second: G19A G44C U96A G120C
The “polymerase ribozyme fitness (log ratio)” value of the first is higher: -2.44 for the first, -3.85 for the second.

Compared with A18U G44U C124U, G19C A29U C79G U112C A119G is lower in “polymerase ribozyme fitness (log ratio)” value: -1.28 for the first, -4.42 for the second.

Going from G19A G48U C49U G69U U78C G93U to G19A U54C C73G C82G C114G G135A, the “polymerase ribozyme fitness (log ratio)” value falls from -3.08 to -3.8.

Going from G19C G42C G110U G113A to G19A C62U U78C G127C, the “polymerase ribozyme fitness (log ratio)” value rises from -5.33 to -4.4.

Compared with A18U G69U C115G, C20A C53A G57A C73U C79U C102A A121C is lower in “polymerase ribozyme fitness (log ratio)” value: -0.333 for the first, -4.43 for the second.

First: C20A G45U A100U
Second: C20A C79U C97U C124A G127C
The “polymerase ribozyme fitness (log ratio)” value of the first is lower: -5.17 for the first, -2.63 for the second.

Compared with C20A C62G C115U G122U, G19A G120A is higher in “polymerase ribozyme fitness (log ratio)” value: -6.79 for the first, -2.6 for the second.

Going from G19A G47A to G19C G60A G93A, the “polymerase ribozyme fitness (log ratio)” value rises from -4.12 to -2.11.

Compared with A18U G44A, A18U G44U is higher in “polymerase ribozyme fitness (log ratio)” value: -2.99 for the first, -2.49 for the second.

Going from G19U C56G U106C to A18U G63C C64U C97G G117A, the “polymerase ribozyme fitness (log ratio)” value falls from -5.42 to -6.33.

First: C20A G52C C72A
Second: G19C A37U C62G C124U
The “polymerase ribozyme fitness (log ratio)” value of the first is higher: -2.79 for the first, -3.51 for the second.

Going from C20A A37U G61A A121C G122A to C20A C40A C115A, the “polymerase ribozyme fitness (log ratio)” value falls from -1.31 to -4.58.

Compared with G19U G44U, G19A C22G A43C G71A C89A U125A is lower in “polymerase ribozyme fitness (log ratio)” value: -4.75 for the first, -6.8 for the second.

Compared with G19U G61A C62U C124A U131C, G19C U92A C114U U133A is higher in “polymerase ribozyme fitness (log ratio)” value: -4.46 for the first, -1.16 for the second.

First: A18U G47U C101A U109A G113A U116A
Second: G19U U130G
The “polymerase ribozyme fitness (log ratio)” value of the first is lower: -6.66 for the first, -3.14 for the second.

Going from G19U G71A to G19C C20A G71A A95U C102U U116C C123U U126G, the “polymerase ribozyme fitness (log ratio)” value falls from -3.31 to -6.03.

Compared with A18U G44C U92A A119U C123A, A18U G71U U92G is higher in “polymerase ribozyme fitness (log ratio)” value: -5.44 for the first, -5.1 for the second.

Compared with G19U A24G U38C G61U G113A, C20A C53A U78G C82G U112A is higher in “polymerase ribozyme fitness (log ratio)” value: -3.85 for the first, -0.686 for the second.

First: C20A A43U
Second: A18U U32A C56A A105C G120C G122A C124A
The “polymerase ribozyme fitness (log ratio)” value of the first is higher: -3.83 for the first, -4.84 for the second.

Going from C20A G48U A50U G120U U132C to C20A C40A C76G C124A, the “polymerase ribozyme fitness (log ratio)” value rises from -4.56 to -2.76.

Going from G19C G44A G61A U125G to G19U C20A C72G G77C A91C C94A U106A, the “polymerase ribozyme fitness (log ratio)” value falls from -2.72 to -5.31.

First: C20A U106C
Second: G19A A41U C56G U59A
The “polymerase ribozyme fitness (log ratio)” value of the first is higher: -2.55 for the first, -5.05 for the second.

Compared with C20A G57A C72A U87A, G19A A46C U125A is higher in “polymerase ribozyme fitness (log ratio)” value: -4.5 for the first, -3.96 for the second.

First: G19A C85U C114G
Second: G19A G61C C73U C89A C114U U131G
The “polymerase ribozyme fitness (log ratio)” value of the first is higher: -2.91 for the first, -5.3 for the second.

Compared with G19A C62U U78G, G19A C72A is higher in “polymerase ribozyme fitness (log ratio)” value: -3.47 for the first, -2.12 for the second.

In the case of G19C C62U U112G, the “polymerase ribozyme fitness (log ratio)” value is reported as -6.55.
